Experimental data published in paper PMC9482650, “Quantitative fragmentomics allow affinity mapping of interactomes” (Nature Communications, 2022).

Columns and labels:
Assay in all cases: holdup assay
Design in all cases: key: below the threshold = too weak to quantify, mostly under pKd 3.1 to 4
APBA1_2, Q02410 = target: T1, APBA1_2, Q02410
T1 sequence (Q02410 742-832, limits assumed, looked up): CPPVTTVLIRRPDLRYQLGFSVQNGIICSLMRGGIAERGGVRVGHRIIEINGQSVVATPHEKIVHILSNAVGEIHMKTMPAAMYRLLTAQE

APBA2_2, Q99767 = target: T2, APBA2_2, Q99767
T2 sequence (Q99767 654-744, limits assumed, looked up): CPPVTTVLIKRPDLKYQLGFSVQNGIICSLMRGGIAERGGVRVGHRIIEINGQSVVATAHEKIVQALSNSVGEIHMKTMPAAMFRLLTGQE

ARHGAP21, Q5T5U3 = target: T3, ARHGAP21, Q5T5U3
T3 sequence (Q5T5U3 45-169, limits assumed, looked up): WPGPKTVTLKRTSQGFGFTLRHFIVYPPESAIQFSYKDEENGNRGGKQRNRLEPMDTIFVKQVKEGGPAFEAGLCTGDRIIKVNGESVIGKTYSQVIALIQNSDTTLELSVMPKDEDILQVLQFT

DLG1_1, Q12959 = target: DLG1_1, Q12959
DLG4_2, P78352 = target: DLG4_2, P78352
FRMPD4, Q14CM0 = target: FRMPD4, Q14CM0
GRID2IP_2, A4D2P6 = target: GRID2IP_2, A4D2P6
GRIP2_3, Q9C0E4 = target: GRIP2_3, Q9C0E4
GRIP2_4, Q9C0E4 = target: GRIP2_4, Q9C0E4
GRIP2_5, Q9C0E4 = target: GRIP2_5, Q9C0E4
GRIP2_6, Q9C0E4 = target: GRIP2_6, Q9C0E4
IL16_1, Q14005 = target: IL16_1, Q14005
IL16_3, Q14005 = target: IL16_3, Q14005
Inadl_10, Q8NI35 = target: Inadl_10, Q8NI35
LNX1_1, Q8TBB1 = target: LNX1_1, Q8TBB1
LNX1_3, Q8TBB1 = target: LNX1_3, Q8TBB1
LNX2_3, Q8N448 = target: T4, LNX2_3, Q8N448
T4 sequence (Q8N448 463-564, limits assumed, looked up): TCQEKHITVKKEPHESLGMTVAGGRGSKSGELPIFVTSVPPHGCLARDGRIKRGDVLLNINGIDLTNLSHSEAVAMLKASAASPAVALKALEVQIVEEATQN

MAGI2_4, Q86UL8 = target: MAGI2_4, Q86UL8
MAGI2_5, Q86UL8 = target: MAGI2_5, Q86UL8
MPP2, Q14168 = target: T5, MPP2, Q14168
T5 sequence (Q14168 180-250, limits assumed, looked up): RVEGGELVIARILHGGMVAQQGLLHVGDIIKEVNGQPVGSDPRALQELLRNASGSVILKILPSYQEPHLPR

MPP7, Q5T2T1 = target: T6, MPP7, Q5T2T1
T6 sequence (Q5T2T1 134-230, limits assumed, looked up): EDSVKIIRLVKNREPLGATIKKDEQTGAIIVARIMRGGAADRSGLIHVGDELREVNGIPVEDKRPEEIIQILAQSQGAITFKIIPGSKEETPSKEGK

NHERF3_1, Q5T2W1 = target: T7, NHERF3_1, Q5T2W1
T7 sequence (Q5T2W1 4-100, limits assumed, looked up): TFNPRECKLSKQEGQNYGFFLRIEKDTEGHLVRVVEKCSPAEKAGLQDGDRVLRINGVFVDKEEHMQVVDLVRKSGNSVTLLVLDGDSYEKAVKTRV

PCLO, Q9Y6V0 = target: T8, PCLO, Q9Y6V0
T8 sequence (Q9Y6V0 4491-4600, limits assumed, looked up): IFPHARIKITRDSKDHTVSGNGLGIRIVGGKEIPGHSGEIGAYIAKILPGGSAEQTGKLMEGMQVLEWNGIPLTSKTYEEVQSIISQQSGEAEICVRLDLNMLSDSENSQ

PDZRN3_1, Q9UPQ7 = target: T9, PDZRN3_1, Q9UPQ7
T9 sequence (Q9UPQ7 244-349, limits assumed, looked up): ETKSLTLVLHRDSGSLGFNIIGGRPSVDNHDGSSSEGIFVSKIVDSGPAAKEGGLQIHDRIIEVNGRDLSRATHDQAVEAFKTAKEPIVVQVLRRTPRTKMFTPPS

PTPN3, P26045 = target: PTPN3, P26045
SCRIB_3, Q14160 = target: SCRIB_3, Q14160
SNTG1, Q9NSN8 = target: T10, SNTG1, Q9NSN8
T10 sequence (Q9NSN8 52-150, limits assumed, looked up): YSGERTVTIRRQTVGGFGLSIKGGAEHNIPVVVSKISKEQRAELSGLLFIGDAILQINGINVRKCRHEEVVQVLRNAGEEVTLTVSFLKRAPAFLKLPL

TJP1_3, Q07157 = target: TJP1_3, Q07157
[1] = plain residues with an end cap or a label only (N-terminal biotin on a linker: ado-ado)
[2] = plain residues with an end cap or a label only (N-terminal biotin on a linker: ahx)

Sequence of Inadl_10, Q8NI35 (Q8NI35 1673-1763): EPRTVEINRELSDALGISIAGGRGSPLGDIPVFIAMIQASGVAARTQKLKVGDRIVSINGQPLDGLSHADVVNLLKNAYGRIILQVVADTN
Sequence of GRIP2_4, Q9C0E4 (Q9C0E4 446-548): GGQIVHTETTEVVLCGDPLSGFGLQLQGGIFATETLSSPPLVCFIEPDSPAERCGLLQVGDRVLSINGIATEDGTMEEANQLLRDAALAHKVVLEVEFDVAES
Sequence of IL16_1, Q14005 (Q14005 210-306): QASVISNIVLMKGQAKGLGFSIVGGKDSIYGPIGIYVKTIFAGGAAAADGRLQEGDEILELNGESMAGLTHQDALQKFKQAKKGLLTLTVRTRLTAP
Sequence of GRID2IP_2, A4D2P6 (A4D2P6 272-370): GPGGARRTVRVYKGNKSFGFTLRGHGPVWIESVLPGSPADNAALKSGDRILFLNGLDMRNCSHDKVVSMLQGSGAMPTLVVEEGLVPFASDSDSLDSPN
Sequence of TJP1_3, Q07157 (Q07157 416-512): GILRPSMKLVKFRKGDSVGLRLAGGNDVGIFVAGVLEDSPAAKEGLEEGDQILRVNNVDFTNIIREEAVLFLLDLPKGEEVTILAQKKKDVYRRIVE
Sequence of LNX1_3, Q8TBB1 (Q8TBB1 500-596): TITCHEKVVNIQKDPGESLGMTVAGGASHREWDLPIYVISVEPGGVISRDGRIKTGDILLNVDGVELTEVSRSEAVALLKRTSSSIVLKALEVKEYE
Sequence of LNX1_1, Q8TBB1 (Q8TBB1 261-371): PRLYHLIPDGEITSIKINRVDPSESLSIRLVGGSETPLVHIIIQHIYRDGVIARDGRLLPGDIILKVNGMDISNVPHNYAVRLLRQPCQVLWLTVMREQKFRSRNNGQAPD
Sequence of FRMPD4, Q14CM0 (Q14CM0 67-160): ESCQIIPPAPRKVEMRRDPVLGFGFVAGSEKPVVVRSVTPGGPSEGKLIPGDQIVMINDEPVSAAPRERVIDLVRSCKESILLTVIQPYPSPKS
Sequence of DLG4_2, P78352 (P78352 155-259): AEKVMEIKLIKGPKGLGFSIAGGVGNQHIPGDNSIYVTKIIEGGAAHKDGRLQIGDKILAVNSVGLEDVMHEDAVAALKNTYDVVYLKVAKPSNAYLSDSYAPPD
Sequence of IL16_3, Q14005 (Q14005 1107-1207): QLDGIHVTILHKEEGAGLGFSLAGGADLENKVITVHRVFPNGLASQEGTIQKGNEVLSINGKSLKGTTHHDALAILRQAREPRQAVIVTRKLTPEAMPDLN
Sequence of PTPN3, P26045 (P26045 505-587): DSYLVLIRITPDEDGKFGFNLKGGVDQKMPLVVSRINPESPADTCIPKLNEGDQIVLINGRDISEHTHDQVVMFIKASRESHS
Sequence of GRIP2_3, Q9C0E4 (Q9C0E4 238-339): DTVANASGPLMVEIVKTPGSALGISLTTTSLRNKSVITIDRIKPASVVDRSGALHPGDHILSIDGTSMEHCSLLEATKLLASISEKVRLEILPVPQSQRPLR
Sequence of GRIP2_5, Q9C0E4 (Q9C0E4 544-642): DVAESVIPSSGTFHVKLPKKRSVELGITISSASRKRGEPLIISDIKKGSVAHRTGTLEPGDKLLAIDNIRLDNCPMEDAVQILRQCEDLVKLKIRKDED
Sequence of SCRIB_3, Q14160 (Q14160 999-1103): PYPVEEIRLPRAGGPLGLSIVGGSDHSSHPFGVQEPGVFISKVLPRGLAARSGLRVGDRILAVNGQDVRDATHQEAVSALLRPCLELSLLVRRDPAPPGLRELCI
Sequence of MAGI2_4, Q86UL8 (Q86UL8 772-865): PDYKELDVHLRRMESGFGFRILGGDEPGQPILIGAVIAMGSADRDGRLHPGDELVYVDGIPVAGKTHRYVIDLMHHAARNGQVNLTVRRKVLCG
Sequence of GRIP2_6, Q9C0E4 (Q9C0E4 648-740): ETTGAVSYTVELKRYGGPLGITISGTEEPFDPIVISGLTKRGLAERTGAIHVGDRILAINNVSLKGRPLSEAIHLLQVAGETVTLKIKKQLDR
Sequence of MAGI2_5, Q86UL8 (Q86UL8 915-1017): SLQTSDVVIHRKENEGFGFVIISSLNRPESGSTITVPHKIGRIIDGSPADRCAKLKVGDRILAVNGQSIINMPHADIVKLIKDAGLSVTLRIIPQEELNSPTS

B1: CLDN4, O14493 (peptide)
chain: ARSAAASNYV
pKd (APBA1_2, Q02410; [1]): 3.83 | pKd (APBA2_2, Q99767; [1]): below the threshold | pKd (ARHGAP21, Q5T5U3; [1]): 3.9 | pKd (DLG1_1, Q12959; [1]): below the threshold | pKd (DLG4_2, P78352; [1]): below the threshold | pKd (FRMPD4, Q14CM0; [1]): below the threshold | pKd (GRID2IP_2, A4D2P6; [1]): 3.56 | pKd (GRIP2_3, Q9C0E4; [1]): below the threshold | pKd (GRIP2_4, Q9C0E4; [1]): below the threshold | pKd (GRIP2_5, Q9C0E4; [1]): below the threshold | pKd (GRIP2_6, Q9C0E4; [1]): below the threshold | pKd (IL16_1, Q14005; [1]): below the threshold | pKd (IL16_3, Q14005; [1]): below the threshold | pKd (Inadl_10, Q8NI35; [1]): below the threshold | pKd (LNX1_1, Q8TBB1; [1]): 3.57 | pKd (LNX1_3, Q8TBB1; [1]): below the threshold | pKd (LNX2_3, Q8N448; [1]): below the threshold | pKd (MAGI2_4, Q86UL8; [1]): 3.65 | pKd (MAGI2_5, Q86UL8; [1]): below the threshold | pKd (MPP2, Q14168; [1]): below the threshold | pKd (MPP7, Q5T2T1; [1]): below the threshold | pKd (NHERF3_1, Q5T2W1; [1]): 4.48 | pKd (PCLO, Q9Y6V0; [1]): below the threshold | pKd (PDZRN3_1, Q9UPQ7; [1]): below the threshold | pKd (PTPN3, P26045; [1]): below the threshold | pKd (SCRIB_3, Q14160; [1]): below the threshold | pKd (SNTG1, Q9NSN8; [1]): below the threshold | pKd (TJP1_3, Q07157; [1]): below the threshold

B2: ABCA1, O95477 (peptide)
chain: QDEKVKESYV
pKd (APBA1_2, Q02410; [2]): 4.29 | pKd (APBA2_2, Q99767; [2]): below the threshold | pKd (ARHGAP21, Q5T5U3; [2]): below the threshold | pKd (DLG1_1, Q12959; [2]): 4.6 | pKd (DLG4_2, P78352; [2]): 5.25 | pKd (FRMPD4, Q14CM0; [2]): below the threshold | pKd (GRID2IP_2, A4D2P6; [2]): 3.97 | pKd (GRIP2_3, Q9C0E4; [2]): below the threshold | pKd (GRIP2_4, Q9C0E4; [2]): below the threshold | pKd (GRIP2_5, Q9C0E4; [2]): below the threshold | pKd (GRIP2_6, Q9C0E4; [2]): below the threshold | pKd (IL16_1, Q14005; [2]): 4.91 | pKd (IL16_3, Q14005; [2]): below the threshold | pKd (Inadl_10, Q8NI35; [2]): below the threshold | pKd (LNX1_1, Q8TBB1; [2]): 4.38 | pKd (LNX1_3, Q8TBB1; [2]): below the threshold | pKd (LNX2_3, Q8N448; [2]): 3.63 | pKd (MAGI2_4, Q86UL8; [2]): 4.04 | pKd (MAGI2_5, Q86UL8; [2]): 4.58 | pKd (MPP2, Q14168; [2]): below the threshold | pKd (MPP7, Q5T2T1; [2]): below the threshold | pKd (NHERF3_1, Q5T2W1; [2]): 5.12 | pKd (PCLO, Q9Y6V0; [2]): below the threshold | pKd (PDZRN3_1, Q9UPQ7; [2]): 4.31 | pKd (PTPN3, P26045; [2]): 5.04 | pKd (SCRIB_3, Q14160; [2]): 4.45 | pKd (SNTG1, Q9NSN8; [2]): 5.24 | pKd (TJP1_3, Q07157; [2]): below the threshold

B3: KCNJ4, P48050 (peptide)
chain: NISYRRESAI
pKd (APBA1_2, Q02410; [1]): below the threshold | pKd (APBA2_2, Q99767; [1]): below the threshold | pKd (ARHGAP21, Q5T5U3; [1]): below the threshold | pKd (DLG1_1, Q12959; [1]): 3.54 | pKd (DLG4_2, P78352; [1]): 4.17 | pKd (FRMPD4, Q14CM0; [1]): below the threshold | pKd (GRID2IP_2, A4D2P6; [1]): 3.51 | pKd (GRIP2_3, Q9C0E4; [1]): below the threshold | pKd (GRIP2_4, Q9C0E4; [1]): below the threshold | pKd (GRIP2_5, Q9C0E4; [1]): below the threshold | pKd (GRIP2_6, Q9C0E4; [1]): below the threshold | pKd (IL16_1, Q14005; [1]): 3.55 | pKd (IL16_3, Q14005; [1]): below the threshold | pKd (Inadl_10, Q8NI35; [1]): below the threshold | pKd (LNX1_1, Q8TBB1; [1]): below the threshold | pKd (LNX1_3, Q8TBB1; [1]): below the threshold | pKd (LNX2_3, Q8N448; [1]): below the threshold | pKd (MAGI2_4, Q86UL8; [1]): below the threshold | pKd (MAGI2_5, Q86UL8; [1]): below the threshold | pKd (MPP2, Q14168; [1]): below the threshold | pKd (MPP7, Q5T2T1; [1]): below the threshold | pKd (NHERF3_1, Q5T2W1; [1]): 3.75 | pKd (PCLO, Q9Y6V0; [1]): below the threshold | pKd (PDZRN3_1, Q9UPQ7; [1]): 4.43 | pKd (PTPN3, P26045; [1]): 4.6 | pKd (SCRIB_3, Q14160; [1]): 4.91 | pKd (SNTG1, Q9NSN8; [1]): below the threshold | pKd (TJP1_3, Q07157; [1]): below the threshold

B4: KCNJ18, B7U540 (peptide)
chain: QRPYRRGSEI
pKd (APBA1_2, Q02410; [1]): 3.53 | pKd (APBA2_2, Q99767; [1]): below the threshold | pKd (ARHGAP21, Q5T5U3; [1]): below the threshold | pKd (DLG1_1, Q12959; [1]): below the threshold | pKd (DLG4_2, P78352; [1]): 3.66 | pKd (FRMPD4, Q14CM0; [1]): below the threshold | pKd (GRID2IP_2, A4D2P6; [1]): 3.71 | pKd (GRIP2_3, Q9C0E4; [1]): below the threshold | pKd (GRIP2_4, Q9C0E4; [1]): below the threshold | pKd (GRIP2_5, Q9C0E4; [1]): below the threshold | pKd (GRIP2_6, Q9C0E4; [1]): below the threshold | pKd (IL16_1, Q14005; [1]): 3.61 | pKd (IL16_3, Q14005; [1]): below the threshold | pKd (Inadl_10, Q8NI35; [1]): below the threshold | pKd (LNX1_1, Q8TBB1; [1]): 3.83 | pKd (LNX1_3, Q8TBB1; [1]): below the threshold | pKd (LNX2_3, Q8N448; [1]): below the threshold | pKd (MAGI2_4, Q86UL8; [1]): below the threshold | pKd (MAGI2_5, Q86UL8; [1]): below the threshold | pKd (MPP2, Q14168; [1]): below the threshold | pKd (MPP7, Q5T2T1; [1]): below the threshold | pKd (NHERF3_1, Q5T2W1; [1]): below the threshold | pKd (PCLO, Q9Y6V0; [1]): below the threshold | pKd (PDZRN3_1, Q9UPQ7; [1]): below the threshold | pKd (PTPN3, P26045; [1]): 4.02 | pKd (SCRIB_3, Q14160; [1]): 4.05 | pKd (SNTG1, Q9NSN8; [1]): below the threshold | pKd (TJP1_3, Q07157; [1]): below the threshold
